These results are taken from the RNAGym collection of RNA variant scans (doi:10.7554/elife.80360).

B1: Twister Ribozyme (parent)
chain: AACACUGCCAAUGCCGGUCCCAAGCCCGGAUAAAAGUGGAGGGGGCGG

The data set covers variants of B1. As to the kind of experiment: self-cleavage, relative activity (ratio to wild type); higher = more cleavage; co-transcriptional.
With AAUACUGCCAAUGCCAGUCCCAAGCCCGGAUAAAAGUGGAGGGGGCGG [C3U G16A], the self-cleavage was 0.248.

Consider AAGACUGCCAAUGCCGGUCCCAAGCCCGGAUAAAAGUGGAUGGGGCGG [C3G G41U], for which the self-cleavage stood at 0.142.

Consider AACACUGCCAAUGCCGGUCCCAAGCCCGGGUAAGAGUGGAGGGGGCGG [A30G A34G], for which the self-cleavage is 0.761.

As for AAUACUGCCAAUGCCGGUCCCAAGCCCGGAUAAAAGUGAAGGGGGCGG [C3U G39A], the self-cleavage is 0.146.

For AACCCUGCCAAUGCCGUUCCCAAGCCCGGAUAAAAGUGGAGGGGGCGG [A4C G17U], the self-cleavage worked out at 0.0801.

In the case of AAAACUGCCAAUGCCUGUCCCAAGCCCGGAUAAAAGUGGAGGGGGCGG [C3A G16U], the self-cleavage was 0.141.

Turning to AACACUGCCAAUGCCUGCCCCAAGCCCGGAUAAAAGUGGAGGGGGCGG [G16U U18C], the self-cleavage came to 0.351.

Take AACACUGCCAAUGCCGGUACCAAGCCCGGUUAAAAGUGGAGGGGGCGG [C19A A30U]: the self-cleavage is 0.349.

As for AGCACUGCCAAUGCCGGUCCCAAGCCCGGAUAAAUGUGGAGGGGGCGG [A2G A35U], the self-cleavage is 0.211.

Take AACACUGCCAAUGCCGGUCCCAGGCCCGGAUAAAAGUGGAAGGGGCGG [A23G G41A]: the self-cleavage stood at 0.15.

On to AACACUGCCAAUGCCGGGCCCAAGCCCUGAUAAAAGUGGAGGGGGCGG [U18G G28U], for which the self-cleavage turned out to be 0.089.

AACUCUGCCAAUGCCGGUGCCAAGCCCGGAUAAAAGUGGAGGGGGCGG [A4U C19G]: the self-cleavage amounted to 0.092.

Regarding AACUCUGCCAAUGACGGUCCCAAGCCCGGAUAAAAGUGGAGGGGGCGG [A4U C14A], the self-cleavage amounted to 0.225.

Regarding AUCACAGCCAAUGCCGGUCCCAAGCCCGGAUAAAAGUGGAGGGGGCGG [A2U U6A], the self-cleavage came out at 0.185.

In the case of AACACUGCGAAUGCCGGUCCCAAGCCCGGAUAAAAGUGGGGGGGGCGG [C9G A40G], the self-cleavage turned out to be 0.109.

For AACACUGCCAAUGCCGGUCCCAAGCACGGAUAAACGUGGAGGGGGCGG [C26A A35C], the self-cleavage turned out to be 0.572.

In the case of AACACAGCCAAUGCCGGUCCCAAGACCGGAUAAAAGUGGAGGGGGCGG [U6A C25A], the self-cleavage stood at 0.0712.

Take AACAAUGCCAAUGCCGGUCGCAAGCCCGGAUAAAAGUGGAGGGGGCGG [C5A C20G]: the self-cleavage was found to be 0.0697.

Regarding AACACUGCCAAUGCCGGACCCAAGCCCGGUUAAAAGUGGAGGGGGCGG [U18A A30U], the self-cleavage stood at 0.586.

For the variant AACAGUGCCAAUGCCGGUCCCAAGCCCGGAUAAAAGUGGAUGGGGCGG [C5G G41U], the self-cleavage turned out to be 0.154.

In the case of AACAAUGCCAAUGCCGGUCCCAAGCCCGGAUAUAAGUGGAGGGGGCGG [C5A A33U], the self-cleavage was 0.492.

With AACACUGCCUAUGCCGGUCCCAAGCCCGGAUAACAGUGGAGGGGGCGG [A10U A34C], the self-cleavage was found to be 0.279.

Consider AACACUGCCAAUGCCGGUCCCAAGCCCGGAUCAAAGUGCAGGGGGCGG [A32C G39C], for which the self-cleavage turned out to be 0.079.

With AACACUGCCAAUGCCGGUCCCAAGCCCCGAUAAAAGUGGAGGGAGCGG [G28C G44A], the self-cleavage worked out at 0.782.

As to AACACUGCCAAUGCCGGUCCCAAGCCCGGAUAAAAAUGGAGGGGCCGG [G36A G45C], the self-cleavage worked out at 0.256.

Consider AACACUGCCAAUGCCGGUCACAAGCCCGGCUAAAAGUGGAGGGGGCGG [C20A A30C], for which the self-cleavage stood at 0.109.

In the case of AACACUGCCAAUGCCGAUCCCAAGCCCGGAUAAAAGUGGAAGGGGCGG [G17A G41A], the self-cleavage was found to be 0.148.

Consider AACACUGCCAAUGCCGGUCACAAGCCCGGAUAAAAGUGGAGAGGGCGG [C20A G42A], for which the self-cleavage was found to be 0.107.

Take AACACUGCCCAUGCCGGUCCCUAGCCCGGAUAAAAGUGGAGGGGGCGG [A10C A22U]: the self-cleavage came to 0.78.

With AUCACUGCCUAUGCCGGUCCCAAGCCCGGAUAAAAGUGGAGGGGGCGG [A2U A10U], the self-cleavage was found to be 0.604.

Turning to AACACUGCCAAUGCCGGUCCCAAGCCCGGAUAAAAGGGGAUGGGGCGG [U37G G41U], the self-cleavage was 0.145.

As to AACACUGCCAAUGCCGGUCCCAAGCCCGGAUAUAAGUAGAGGGGGCGG [A33U G38A], the self-cleavage stood at 0.946.

For the variant AACGCUGCCAAUGCCGGUCCCAAGCCCGGAUAAACGUGGAGGGGGCGG [A4G A35C], the self-cleavage amounted to 0.865.

For AACACUGCUAAUGCCGGCCCCAAGCCCGGAUAAAAGUGGAGGGGGCGG [C9U U18C], the self-cleavage was 0.0748.

AAUAUUGCCAAUGCCGGUCCCAAGCCCGGAUAAAAGUGGAGGGGGCGG [C3U C5U]: the self-cleavage was 0.315.

For the variant AACACUGCCAAUGCGGGUCCCAAGCCCGGAUAAAAUUGGAGGGGGCGG [C15G G36U], the self-cleavage is 0.0831.

On to AACACUGCCAAUGCCGGUACCAAGCCCGGAUAAAAGUGGAGUGGGCGG [C19A G42U], for which the self-cleavage turned out to be 0.103.

As for AACACUGCCAAUGCCAGUCCCAAGCCCGGAUAAAAGUGGAGGGGGGGG [G16A C46G], the self-cleavage was found to be 0.813.

AACACUGCCAAUGCCGGUCCUAAGCCCCGAUAAAAGUGGAGGGGGCGG [C21U G28C]: the self-cleavage was found to be 0.0826.

Take AACACUGCCAAUGCCGGUCCCAAGCACGGAUAAAAGUGGAGGGGGCCG [C26A G47C]: the self-cleavage turned out to be 0.2.

With AAUACUGCCAACGCCGGUCCCAAGCCCGGAUAAAAGUGGAGGGGGCGG [C3U U12C], the self-cleavage worked out at 0.39.

Turning to AACACUGCCAAUGCCGGUCCCAAGCCCGGAUAAAAGUGGAGGCGGCGA [G43C G48A], the self-cleavage was found to be 0.198.

AACACUGCCAAUGCCGGUCCCAAGUCCGGAUUAAAGUGGAGGGGGCGG [C25U A32U]: the self-cleavage amounted to 0.799.

Consider AACAUUGCCAAUGUCGGUCCCAAGCCCGGAUAAAAGUGGAGGGGGCGG [C5U C14U], for which the self-cleavage came to 0.68.

AACACUGCCAAUGCCGGUCCCAAGCUCGGAUAAAAGUGAAGGGGGCGG [C26U G39A]: the self-cleavage was 0.118.

With AACACUGCCAAUGCCGGUCCCACGCCCGGAUAAAAGUGGGGGGGGCGG [A23C A40G], the self-cleavage is 0.128.

Consider AACACUGCCAAUGCCGGUCCCAAGCCCAGAUAAAAGUGGAGGGGGCUG [G28A G47U], for which the self-cleavage is 0.576.

In the case of AACAUUGCCAAUGCCGGUCCCAAGCCCGGAUAAAAGUGGACGGGGCGG [C5U G41C], the self-cleavage worked out at 0.137.

With AACACUGCCAAUGCCGGUCCCACGCCCGGCUAAAAGUGGAGGGGGCGG [A23C A30C], the self-cleavage stood at 0.116.

Turning to AACACUGCCAAUGCCGGUCGCAAGCCCGGAUAAAAGUGGAAGGGGCGG [C20G G41A], the self-cleavage was found to be 0.0636.

Regarding AACACUGCCAAUGCCGGUCCCAAGCCAGGAUAAAAGUAGAGGGGGCGG [C27A G38A], the self-cleavage was 0.241.

Regarding AACACUGCCAAUGCCGGUCCCAAGCCGGGAUAAAAGCGGAGGGGGCGG [C27G U37C], the self-cleavage turned out to be 0.102.

Consider AACACUGCCAAUGCCGGUCCCAAGCCCUGAUAAAAGUCGAGGGGGCGG [G28U G38C], for which the self-cleavage came out at 0.676.

For the variant ACCACUGCCAAUGUCGGUCCCAAGCCCGGAUAAAAGUGGAGGGGGCGG [A2C C14U], the self-cleavage came to 0.0681.
